± gives the uncertainty stated by the source.
Test: amyloid nucleation score (Sup35N fusion, yeast selection) (log enrichment); library NNK2; higher = more nucleation; inactive = no reads after selection
Summary of the method: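 DiMSum was used to calculate nucleation scores as log enrichment of output over input reads, centred on the mode score of non-aggregating sequences. Sequences with fewer than 100 input reads were not scored. Input and output came from Illumina sequencing of plasmid inserts in psi-negative yeast expressing peptides of 20 random codons fused to Sup35N, induced 24 hours with 100 μM copper sulfate and then grown 7 days at 30°C on medium lacking adenine and uracil.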

Substance	amyloid nucleation score
RFSQRNPITVHGQSDTV	inactive
VFYCKRVAMDNTSCRNSSYL	-0.536 ± 0.31
PRWGRTMGCFSFRDPCRVTG	-0.277 ± 0.35
GGTVNYFNTLQRSMGNVESV	3.66 ± 0.046
GPLRNEASGIWKKPGQCMTD	-0.813 ± 0.76
NFASFCPFFS	0.053 ± 0.39
WQCKLPSNYGFGTK	0.11 ± 0.77
WQRLKLSEKLVGSAVPLKAG	4.44 ± 0.11
VYELCCLYMWLGHSNYAADM	5.33 ± 0.044
LEYFITTSGSSSKVLHGFTM	-0.986 ± 1.1
FGDSDRMRAGRLWFMWSLVA	0.639 ± 0.35
NFGLEELTGKIGGRTC	1.04 ± 0.23
NWWRD	-0.071 ± 0.43
FMQPYTCRSDFDRK	0.052 ± 0.48
VMRMWRVSMRF	6.068 ± 0.032
NPNELLLSSCFFHYLVKPWG	inactive
AVVFGRGPSGYTHPMFRWPC	-0.754 ± 1.1
TDSYPVLDLHPGSYRVH	0.397 ± 0.39
YVTPKDDSDAVWGLTLMEMS	0.292 ± 0.39
RVPIWRANIGKGSSIMPIFC	0.009 ± 0.76
FYKGWMVLALNDNSVVSINV	3.42 ± 0.085
GHSLYPWSALTPLL	inactive
CILSYVQEMTMEPYLSKSLS	-0.296 ± 0.76
GFKSFEHL	1.91 ± 0.14
YNIIYWFLYKVQAWSVCSWG	5.31 ± 0.077
VLAHNSGWNGTKETYCMSNG	-0.436 ± 0.54
SHINFYVLEFWTFRIGDVFV	inactive

Substance	amyloid nucleation score
TMIRYVERMVDNLFRNCRLP	0.827 ± 0.2
NCFFITGGNGYNAVLLKYIC	3.83 ± 0.04
NWGFISVLVALPWVWGLRPG	-0.387 ± 0.42
GLDMDGSVLPFVFYRSMYGE	0.136 ± 0.55
VLDFQTSYMLPEFVRPGVGY	0.216 ± 0.25
LRIRYFSFDIIVLEGYIRSA	-0.205 ± 0.29
ATYNCVHRWGIFTSAYGSKC	-0.653 ± 0.56
FESTAGTDKLRTEHLDPFAD	inactive
GIRWQVATDSPRLSGYPLCT	3.46 ± 0.083
SLKVHSWFGNIYSDFLLTSV	-0.55 ± 0.79
CCIRQCNMRIKADDQRRDVI	0.109 ± 0.53
VMLGHYTVLFGVKVRECREG	1.7 ± 0.19
TLYSVSLGKEFYYG	0.192 ± 0.46
NLDEVFMFTSTHLVIPLESK	-1.6 ± 0.75
LYVVVRLISCYYGAFPSWNR	-0.316 ± 0.26
DVYVVIPNYGPQEWVSNYS	-0.341 ± 0.5
EAAYLVFSCVMCTFYFEFCF	2.55 ± 0.089
QRSAKLRALPEGIKHKKWLM	-0.108 ± 1.1
FVCTDCLF	-1.35 ± 0.48
VSVDGKLRFRPT	0.313 ± 0.45
SVRKGVFNSSMNGVCTTVQS	-0.28 ± 0.74
NQVSIIHWWAAYDYWSPM	-0.163 ± 0.6
VKGVWWYRIMS	0.785 ± 0.51
SGHTFVFFYDSK	5.95 ± 0.061
FYSVHSCLYVLIHRVQHACC	-0.235 ± 1.1
FCLTVLVV	4.18 ± 0.11
FVNFMGWTMSNINNVYFGHK	7.303 ± 0.055

Substance	amyloid nucleation score
AGLIRCLLRGTCNRNFFSLY	inactive
TNLCVPFVYEHFGCYGYN	3.83 ± 0.12
VITSYVRRQCVKFCCGARCR	8.347 ± 0.054
RSKLNIDV	1.95 ± 0.14
FEACVTGMLSDRF	-0.871 ± 0.41
LAFDK	inactive
MKKFLGWRYELNCWVLYNSG	-1.16 ± 0.76
ILYLGHN	-1.61 ± 0.64
FTGYRAISASLGTYCLKSCG	-0.245 ± 0.76
RRHSNRICLQLWNHLGKRCR	0.587 ± 0.29
VFQIHYMVGNVVCTWSWPNV	4.27 ± 0.056
LALMFLYAALFHAAR	7.139 ± 0.058
QQCLINVSSRLLAGVNACSM	1.22 ± 0.34
ISEFHGYSMFKHEARQNGCQ	5.516 ± 0.033
SVLTCKLK	inactive
VYNLARSRSKAERVV	0.201 ± 1
MDWSSGSYGSLSSSHAIERF	-0.093 ± 0.79
ITAFTNRVKFWS	0.132 ± 0.36
DWFSTLHLIGSAS	-0.041 ± 0.63
FITNFGACRYCCRWHM	6.184 ± 0.042
EGLIDCCIH	inactive
HPSLVAGDWRFTGPLFCSLG	4.02 ± 0.071
GPISVKRYL	1.64 ± 0.35
SRIRDLVPHIRC	-0.594 ± 1.1
EFANWFVGYNQGSLGHALKQ	0.355 ± 0.42
SMISWATMVSRRDYLYMCV	-0.216 ± 0.45

— the supplement of paper PMC12042874
